We go through 41 sequences from the nanobody polyreactivity screen of Harvey et al. (2022).

The data set can be described thus: yeast display, Sf9 membrane polyspecificity reagent, FACS + sequencing; frameworks hold sequencing errors. Put shortly:
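Genes from sorted yeast were amplified by colony PCR, read by MiSeq 2 × 250 sequencing and filtered on CDR length. These cells carried a synthetic nanobody library in Saccharomyces cerevisiae BJ5465 and were sorted by FACS into low and high (top ~1%) gates on anti-HA and streptavidin fluorescence. Polyreactivity is labelled according to the gate of origin.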
With “QVQLVESGGGLVQAGGSLRLSSAASGSIFYSYAMGWYRQAPGKERELVARMSSGGSTYYADSVKGRFTISRDNAKNSVYLQMNSLKPEDTAVYYCAAEALYYPYETYDYWGQGTQETVSS”, the “polyreactivity (PSR sort gate)” value is “high polyreactivity”.

On to “QVQLVESGGGLVQAGGSLRLSSAASGSTFDHYAMGWYRQAPGKERELVAAITWSGGRTYYADSVKGRFTISRDNAKNTVYFQMNSLKPEDTAVYYCAARGYQIRVANYKYDSWGQGTQVTVSS”, for which the “polyreactivity (PSR sort gate)” value is “low polyreactivity”.

With “QVQLVESGGGLVQAGGSLRLSSAASGSTFIRYAMGWYRQAPGKERELVAAISTSGGSTYYADSVKGRFTISRDNAKNTVYLQMNSLKPEDTAVYYCNAVSRSYRYAGVPGFHYDYWGQGTQVTVSS”, the “polyreactivity (PSR sort gate)” value is listed as “high polyreactivity”.

As for “QVQLVESGGGLVQAGGSLRLSSAASGSTFKFYAMGWYRQAPGKERELVAAIRYSGGSTYYADSVKGRFTISRDNAKNTVYLQMNSLKPEDTAVYFCATEAQCVTYWFGYWGQGTQVTVSS”, the “polyreactivity (PSR sort gate)” value is “low polyreactivity”.

For “QVQLVESGGGLVQAGGSLRLSSAASGSTFKYYAMGCYRQAPGKERELVAAITNDGSTSYADSVKGRFTISRDNAKNTVYLQMNSLTPEDTAVYYCNARSKYPSYFSSMGYWGQGTQVTVSS”, the “polyreactivity (PSR sort gate)” value is on record as “high polyreactivity”.

In the case of “QVQLVESGGGLVQAGGSLRLSSAASGSTFKYYAMGWYRPDPGKERELVAAIRTSGGRTYYADSVKGRFTISRDNAKNTVDLQMNSLKPEDSAVYFCNARYNQFGQRFDYWGQGSQVTVSS”, the “polyreactivity (PSR sort gate)” value was “high polyreactivity”.

Regarding “QVQLVESGGGLVQAGGSLRLSSAASGSTFPDYDMGWYRQAPGKERELVAAITSSGGITYYADSVKGRFTISRDNAKNTVYLQMNSLKPEDTSVSYCAAYGYGSNYRYTGYYYWGQGTEVTVSS”, the “polyreactivity (PSR sort gate)” value is “low polyreactivity”.

For “QVQLVESGGGLVQAGGSLRLSSAASGSTFPSYAMGWYRQAPGKERELVAAINSGGGTNYADSVKGRFTISRDNAKNTVYLQMNSLKPEDTAVYYCAKSRYDYTKTEGGYWGLGTQVTVSS”, the “polyreactivity (PSR sort gate)” value is reported as “low polyreactivity”.

Regarding “QVQLVESGGGLVQAGGSLRLSSAASGSTFPVNARGCYRQAPGKERELVAAISSRGSSTYYADSVKGRFTISRDNAKNTVYLQMHSLNREDTAVYYCAAQQRFPRFYYWGEGTQVTVSS”, the “polyreactivity (PSR sort gate)” value is on record as “high polyreactivity”.

On to “QVQLVESGGGLVQAGGSLRLSSAASGSTFPYNAMGWYRQAPGKARELVAAITSRGGSTYYADSVKGRFTISRDNAKNTVYLQMNSLKPEDTAVYYCATPGDTYGWTRRRYYYWGQGTQVTVSS”, for which the “polyreactivity (PSR sort gate)” value is given as “high polyreactivity”.

For “QVQLVESGGGLVQAGGSLRLSSAASGSTFQIYTMGWSRQAPGKESELVAAITNGGGSTYYADSVKGRFTISRDNAKNTVYLQMNSLKPEDTAVYYCAAEQRYPLIILYDDWGQGTQVTVSS”, the “polyreactivity (PSR sort gate)” value is recorded as “low polyreactivity”.

For the sequence “QVQLVESGGGLVQAGGSLRLSSAASGSTFRGNAMGWYRQAPGKERELVAAITGRGGRTYYADSVKGRFTISRDNAKNTVYLQMNSLKPEDTAVYYCAAYSRYKPYGITAYDYWGLGTQVTVSS”, the “polyreactivity (PSR sort gate)” value is listed as “high polyreactivity”.

Take “QVQLVESGGGLVQAGGSLRLSSAASGSTFRYYTMGWYRPAPGKERELVADITIGGSTYYADSVKGRFTISRDNAKNTVYLQMNSLKPEDSAVYYCAARSTGGRIFATGVAYDYWGQGTQVTVSS”: the “polyreactivity (PSR sort gate)” value is “low polyreactivity”.

Turning to “QVQLVESGGGLVQAGGSLRLSSAASGSTFTSYAMGWYRQAPGKERELVAAINYSGGSTYYADSVKGRFTISRDNAKNNVYLQMNILKQEDTAVYDCAADGYIRQYVTYYYWGQGTQVTVSS”, the “polyreactivity (PSR sort gate)” value is given as “low polyreactivity”.

For “QVQLVESGGGLVQAGGSLRLSSAASGSTFTSYAMGWYRQAPGKEREVVSTITGRGGSTSYSDSVKGRFTISRDNAKNTVYLQMNSLKPEDTAVYYCAKRVVVWYFGTGDYWGQGTKVTVSS”, the “polyreactivity (PSR sort gate)” value is given as “low polyreactivity”.

Turning to “QVQLVESGGGLVQAGGSLRLSSAASGSTFYRYAMGWYRQAPGKERELVAAISRSGGNTFYADSVKGRFTISRDNAKNTVYLQMNSLKPEDTAVYYCAALRSWYGQTSGMDYWGQGTQVTVSS”, the “polyreactivity (PSR sort gate)” value is given as “high polyreactivity”.

Turning to “QVQLVESGGGLVQAGGSLRLSSAASGSTLVIYAMGWYRQAPGIERQLVAAIDANTGSTYYADSVKGRFTISLDNAKNTDYLQMNSLKPEDTAVYYCNAQVYLPTAYDYWGQGTLVTVSS”, the “polyreactivity (PSR sort gate)” value is reported as “low polyreactivity”.

With “QVQLVESGGGLVQAGGSLRLSSAASGSTSFQNAMGWYRQATGKEREFVAAISGSGDRTNYADSVKGRFTISRDNAMYTVYVQMNSLKPEDTAVYYCAAVRGYPPSNYYYWGQGTQVTVSS”, the “polyreactivity (PSR sort gate)” value was “high polyreactivity”.

As to “QVQLVESGGGLVQAGGSLRLSSAASGSTYDFKAMGWNRQAHGKERELFAAITGSGGSTDNADSVKGRFTISRDNAKNSVYLQMNSLKPEDTAVYYCNAGKTFDYRDGVGYDHWGQGTQVTVSS”, the “polyreactivity (PSR sort gate)” value was “low polyreactivity”.

With “QVQLVESGGGLVQAGGSLRLSSAASGYIFTYYTMGCSRQAPGKERELVAAITYSGSRTRYADSVKGRFTISRDNAKNTVYLQMNSLKPEDNAVYYCAAVYRLKSGGEWRDSQFGYWGQGTQVTVSS”, the “polyreactivity (PSR sort gate)” value was “high polyreactivity”.

Consider “QVQLVESGGGLVQAGGSLRLSSAGSGSIFTGYAMGWYRPAPGKERELVAAIRTRGGSTYYADSVKGRFTISRDNAKNTVYLQMNSLKPEDNAVYYCANRYFGWYGNFDDWGQGTQVTVSS”, for which the “polyreactivity (PSR sort gate)” value is given as “high polyreactivity”.

In the case of “QVQLVESGGGLVQAGGSLRLSSASSGFTFSYYAMGWSRPAPGKERELVAAITSDGGRTYYADSVKGRFTISRDNAKNTVYLQMNSLKPEDTAVYYCAARTRYRGIKGYNYWGQGTQVTVSS”, the “polyreactivity (PSR sort gate)” value is on record as “high polyreactivity”.

In the case of “QVQLVESGGGLVQAGGSLRLSSASSGSIFYVYAMGWYRQAPGKERELVAAIYSGASTYYADSVKGRFTISRDNAKNSVYLQMNSLKPEDTAVYYCADERYFYEYDYWGQGTQVTVSS”, the “polyreactivity (PSR sort gate)” value is on record as “low polyreactivity”.

With “QVQLVESGGGLVQAGGSLRLSSDASGSIFHTYAMGWYRQAPGKERELVAAITVSGGDTYYADSVKGRFTISRDNAKNTVYLQKISLKAEDTAVYYCAVDTTTSYTVEYDYWGQGTQVTVSS”, the “polyreactivity (PSR sort gate)” value was “low polyreactivity”.

Consider “QVQLVESGGGLVQAGGSLRLSSPASGRTFPGNPMGWYRQAPGKLRELVAAITRVRSTYYADSVKGRFTISRDNAKNTVYLQMNWLKPEDTVVYYCAADRLEGSYEDDATGFDDWGQGTQVTVSS”, for which the “polyreactivity (PSR sort gate)” value is listed as “low polyreactivity”.

As for “QVQLVESGGGLVQAGGSLRLSSSASGSTFWYYVRGRYRQAPGKERELVAAISTRGDSTYYADSVKGRFTISRDNAKNSVYLQINSLKPEDTAVYYCAKSRQSSGRVRFDYWGQGTEVTVSS”, the “polyreactivity (PSR sort gate)” value is “low polyreactivity”.

For the sequence “QVQLVESGGGLVQAGGSLRLSTAASGSTLWYNDMGWFRKAPGKERELVASITSDGGSSTYADSVKGRFTISRDNEKNTVYLQMNSLKPEDTAVYYCAADWPIVQYDYWGQGTQVTVSS”, the “polyreactivity (PSR sort gate)” value is given as “low polyreactivity”.

“QVQLVESGGGLVQAGGSLRLSWAASGFIFPYNAMGWYRQAPGKERELVAVISSSGGDTYYADSVKGRFTISRDNAKNTVYLQMNSLIPVDTAVYYCAADSYYGYEYWGQGTQVTVSS”: the “polyreactivity (PSR sort gate)” value was “low polyreactivity”.

For “QVQLVESGGGLVQAGGSLRLSWAASGGNFEYNAMGWYRQAPGKERELVAAITNGGSTNYADSVKGRFSISRDNAKNTVYIQMNSLKPDDTAVYYCATVFFVLPPTRFASWGQGTQVTVSS”, the “polyreactivity (PSR sort gate)” value is “low polyreactivity”.

On to “QVQLVESGGGLVQAGGSLRLSWAASGRTFDYNAMGWYRQAPGKERELVAAITSSGGSTYYADSVKGRFTISRDNAKNTVYLQMNSLKPEDTAVYYCDTDGQSPYYIYYWGQGTQVTVSS”, for which the “polyreactivity (PSR sort gate)” value is given as “low polyreactivity”.

On to “QVQLVESGGGLVQAGGSLRLSWAASGSIFGLNALGWYRQAPGKERELVADITSGGGNTYSADSVKGRFTISRDNAKNTVYLQMNSLKPEDTAVYYCNADYDLYFSGWYDYWGQGTQVTVSS”, for which the “polyreactivity (PSR sort gate)” value is “low polyreactivity”.

For the sequence “QVQLVESGGGLVQAGGSLRLSWAASGSIFTLNAMGWYRQAPGKERELVAAIRWSGGSTYYADSVKGRFTISRDNAKNTGYLQRNRLKPEDTAVYYCAAKYPSDYYSPGFKYWGQGTQVTVSS”, the “polyreactivity (PSR sort gate)” value was “high polyreactivity”.

Regarding “QVQLVESGGGLVQAGGSLRLSWAASGSKSCADVMGWYRPEPGKERELLAAISSGTSTYYADSVKGRFTISRDNAKNTVYLQMNSLKPEDTGVYYCAAYYYSYPTNGGYGYCGQGTQVTVSS”, the “polyreactivity (PSR sort gate)” value is recorded as “low polyreactivity”.

As for “QVQLVESGGGLVQAGGSLRLSWAASGSSFGYAMGWYRQGPGKERELVAAISFSGVSTYYADSVKGRFTISRDNAKHTVYLQMNSLKPEDTAVYYCNAYSDGDEDYWGQGTQVTVSS”, the “polyreactivity (PSR sort gate)” value is “low polyreactivity”.

Take “QVQLVESGGGLVQAGGSLRLSWAASGSTFVHNAMGWYIQAPGKERELVAGISRTGGSTYYADSVKGRFTISRDNAKNTVYLQMNSLKPEDTAVYYCAVRYPRSWQFDYWGQGTQVNVSS”: the “polyreactivity (PSR sort gate)” value is “high polyreactivity”.

Take “QVQLVESGGGLVQAGGSLRLSWAASGSTLLSNAMGWSTQAPGKERELVAAINYSGGRTYYADSVKGRFTISRDHAQNTVYLQMNSLKPEDTAVYYCNALSSGHGSSSRYDYWGQGTQVTVSS”: the “polyreactivity (PSR sort gate)” value is “low polyreactivity”.

With “QVQLVESGGGLVQAGGSLRLSYAASGSTFRVYAMGWYRQAPGKERELVAAISRSGGRTYYADSVKGRFTISRDNAKNTVYLQMNSLKPEDTAVYYCAADYKYTAVSDDYWGQGTQVTVSS”, the “polyreactivity (PSR sort gate)” value is recorded as “high polyreactivity”.

With “QVQLVESGGGLVQAGGSLRLSYAPSGRTFGYYAMGWYRQAPGKERELVAAIRSTGSTNYADSVKGRFTISRDNAKNTVYLQMNRLKPEDTAVYYCNAKRRFRYDYWGQGTQVTVSS”, the “polyreactivity (PSR sort gate)” value was “low polyreactivity”.

Turning to “QVQLVESGGGLVQAGGSLRLTCAASAFIYRRNAMGSYRQAPGKERELVAAITGGGGSTYYADSVKGSFTISRDNAKNTVYLQMNSLKPEDTAVYYCAVDLSRLYNRGGDYWGQGTQVTVSS”, the “polyreactivity (PSR sort gate)” value is on record as “high polyreactivity”.

“QVQLVESGGGLVQAGGSLRLTCAASARTFFRNTMGSYRQATGKERELVATISWSGGSTNSADSVKGRFTISRDNAKNTVSLQMNSLKPEDTAVYYCAAVDYDTSIYDRPGGFDYWGQGTQVTVSS”: the “polyreactivity (PSR sort gate)” value was “low polyreactivity”.

As to “QVQLVESGGGLVQAGGSLRLTCAASGFIFKIYARGWYRQAPGKERELVARITRSGGSTYYADSVKGRFTISRDNAKNTVYLQMNSLKPEDTAVYSCNAELFRYVRYDYWGQGTQVTVSS”, the “polyreactivity (PSR sort gate)” value is “high polyreactivity”.
